Measured values from patent US20200109196A1 (MOGAM INSTITUTE FOR BIOMEDICAL RESEARCH, published 2020).

What was measured:
Assay in all cases: flow cytometry on transfected HEK293 cells (GFP+ gate), PE goat anti-huIgG4 [a]
[1] = target: T1, CEACAM3 expressed on the surface of HEK293 cells (human, UniProt P40198 35-252)
T1 construct: whole, on cells; GFP-tagged clone; also called CEACAM3-GFP
T1 sequence (looked up): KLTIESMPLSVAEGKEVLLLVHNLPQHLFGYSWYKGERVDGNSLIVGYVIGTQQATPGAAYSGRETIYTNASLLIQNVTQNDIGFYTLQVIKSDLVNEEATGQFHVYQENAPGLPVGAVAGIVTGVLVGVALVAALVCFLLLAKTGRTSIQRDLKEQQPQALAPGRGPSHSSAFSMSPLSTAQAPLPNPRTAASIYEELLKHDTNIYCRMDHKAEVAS
Description: (§1) HEK293 cells were added with 10 μg of each pEF1α-AcGFP-N1 vector (Clontech, Cat. No. 631973) as a control vector, CEACAM1, CEACAM3, CEACAM5, CEACAM6 and CEACAM8 plasmid vectors, followed by transfection under the condition of pulse voltage 1,100 V, pulse width 20 ms and pulse number 2. After 48 hours of transfection, GFP expression was confirmed by fluorescence microscopy. The cells were detached by treatment with 1 ml of TrypLE Express Solution (ThermoFisher Scientific; Cat. No. 12605010), resuspended in 9 ml of DMEM (Gibco, Cat. No. 11995-065) supplemented with 10% (v/v) FBS, and centrifuged at 1,200 rpm for 5 minutes, to remove the resulting supernatant.
(§2) After washing once with PBS, the cells were resuspended in a FACS buffer to obtain a concentration of 5×10⁵ cells/100 μl. Human Fc Block solution was added to the samples at 1 μl/sample, which were incubated at 4° C. for 10 minutes. The cells were treated with hulgG4 or one of the anti-CEACAM1 clones listed at 1 μg/5×10⁵ cells, which were incubated at 4° C. for 10 minutes. After washing with FACS buffer, the PE-labeled goat-anti-huIgG4 antibodies were diluted at a ratio of 1:200 in a FACS buffer, and added to the samples at 100 μl/sample, which were incubated at 4° C. for 30 minutes. The samples were filled with a FACS buffer up to 200 μl, and then centrifuged at 1,200 rpm for 5 minutes, to remove the resulting supernatant. The fixation buffer (300 μl) was added to resuspend the cells. The cells expressing GFP were selected in the FACS LSR-Fortessa device, and the expression of CEACAM members were evaluated respectively using the antibody specific to each CEACAM member (Table 3). Also, the binding of anti-CEACAM1 antibodies was evaluated by PE fluorescence channel and analyzed using the FlowJo software.

[2] = target: T2, CEACAM5 expressed on the surface of HEK293 cells (human, UniProt P06731 35-685)
T2 construct: whole, on cells; GFP-tagged clone; also called CEACAM5-GFP
T2 sequence (looked up): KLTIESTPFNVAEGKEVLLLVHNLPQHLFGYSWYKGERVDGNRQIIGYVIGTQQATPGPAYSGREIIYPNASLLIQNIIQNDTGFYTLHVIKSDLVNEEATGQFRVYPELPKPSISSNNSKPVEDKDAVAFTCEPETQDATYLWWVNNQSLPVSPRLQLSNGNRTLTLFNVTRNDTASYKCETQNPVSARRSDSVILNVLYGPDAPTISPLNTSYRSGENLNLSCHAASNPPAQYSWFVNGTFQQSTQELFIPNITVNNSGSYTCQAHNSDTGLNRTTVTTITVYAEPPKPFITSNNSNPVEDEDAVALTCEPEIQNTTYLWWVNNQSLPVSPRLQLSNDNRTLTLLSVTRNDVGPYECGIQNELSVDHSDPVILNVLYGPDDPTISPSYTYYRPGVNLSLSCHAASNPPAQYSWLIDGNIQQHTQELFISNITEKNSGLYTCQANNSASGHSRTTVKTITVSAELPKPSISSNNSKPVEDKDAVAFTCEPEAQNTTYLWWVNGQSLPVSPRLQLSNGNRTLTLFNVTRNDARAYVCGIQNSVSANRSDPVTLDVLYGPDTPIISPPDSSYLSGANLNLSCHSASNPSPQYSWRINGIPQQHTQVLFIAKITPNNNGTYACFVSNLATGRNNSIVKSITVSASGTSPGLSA
Description: as §1, §2

[3] = target: T3, CEACAM8 expressed on the surface of HEK293 cells (human, UniProt P31997 35-320)
T3 construct: whole, on cells
T3 sequence (looked up): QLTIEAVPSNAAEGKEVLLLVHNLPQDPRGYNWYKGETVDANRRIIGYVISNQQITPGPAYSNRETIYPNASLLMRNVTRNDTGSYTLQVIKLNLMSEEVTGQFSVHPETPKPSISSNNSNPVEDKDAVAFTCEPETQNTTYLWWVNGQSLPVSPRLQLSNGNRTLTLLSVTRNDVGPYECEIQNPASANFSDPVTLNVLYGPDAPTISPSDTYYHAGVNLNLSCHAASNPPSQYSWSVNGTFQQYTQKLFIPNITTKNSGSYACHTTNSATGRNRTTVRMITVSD
Description: as §1, §2

binding result [1]: no binding
binding result [2]: no binding
binding result [3]: no binding
B1: C25 (antibody, human IgG4 S228P, lambda, V domains shown)
VH: EVQLLESGGGLVQPGGSLRLSCAASGFTFSNYAMSWVRQAPGKGLEWVSVISHGGGSIYYADSVKGRLTISRDNSKNTLYLQMNSLRAEDTAVYYCARDPTKGYAPTFDYWGQGTLVTVSS
VL: QSVLTQPPSASGTPGQRVTISCSGSSSNIGNNYVSWYQQLPGTAPKLLIYADSKRPSGVPDRFSGSKSGTSASLAISGLRSEDEADYYCGAWDASLNGYVFGGGTKLTVLG
notes: Made in ExpiHEK293F cells, protein A purified. huIgG4 is the isotype control and anti-huIgG4 the detection reagent; the isotype is not otherwise stated; also called anti-CEACAM1 antibody C25
